This is an account of results in patent US20260216244A1 (published 2026).

For this test, the target named is T1, EGFR L858R peptide on HLA-A*03:01 (human).
T1 peptide: KITDFGRAK
In words: multimer staining.

B1: TCR3 (TCR, V domains shown)
Valpha: ENVEQHPSTLSVQEGDSAVIKCTYSDSASNYFPWYKQELGKRPQLIIDIRSNVGEKKDQRIAVTLNKTAKHFSLHITETQPEDSAVYFCAADMRFGAGTRLTVKP
Vbeta: GVTQTPKFRILKIGQSMTLQCTQDMNHNYMYWYRQDPGMGLKLIYYSVGAGITDKGEVPNGYNVSRSTTEDFPLRLELAAPSQTSVYFCASSYSRDSIREQYFGPGTRLTVT
With B1, the binding result is on record as “recognises”.

B2: TCR4 (TCR, V domains shown)
Valpha: QKEVEQNSGPLSVPEGAIASLNCTYSDRGSQSFFWYRQYSGKSPELIMSIYSNGDKEDGRFTAQLNKASQYVSLLIRDSQPSDSATYLCAVSATGFQKLVFGTGTRLLVSP
Vbeta: QVTQNPRYLITVTGKKLTVTCSQNMNHEYMSWYRQDPGLGLRQIYYSMNVEVTDKGDVPEGYKVSRKEKRNFPLILESPSPNQTSLYFCASTADRGGNEQFFGPGTRLTVL
In the case of B2, the binding result was “recognises”.
